B1: C9orf9 (parent)
chain: LTKASLKPRGCSKPPWRPPGGKL

Variants of: B1
Experiment: protein stability index of a GFP-peptide fusion (GPS, HEK-293T) (PSI 1-6); higher = more stable
Conditions: c terminus: native
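Also: lentivirally expressed fusions sorted by FACS into six bins by GFP to DsRed ratio, PSI derived from sequencing read proportions per bin multiplied by bin number.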

Going from LTKASLKPRGCSKPVWRPPGGKL [P15V] to LTKASLKPRGCSKPTWRPPGGKL [P15T], the protein stability index rises from 2.02 to 3.08.

Compared with LTKASLKPRGCSKPIWRPPGGKL [P15I], LTKASLKPRGCSKPGWRPPGGKL [P15G] is lower in protein stability index: 2.36 for the first, 2.02 for the second.

First: LTKASLKPRGCSKPHWRPPGGKL [P15H]
Second: LTKASLKPRGCSKPWWRPPGGKL [P15W]
The protein stability index of the first is higher: 2.18 for the first, 1.16 for the second.

Compared with LTKASLKPRGCSKPQWRPPGGKL [P15Q], LTKASLKPRGCSKPLWRPPGGKL [P15L] is higher in protein stability index: 2.77 for the first, 3.21 for the second.

Compared with LTKASLKPRGCSKPRWRPPGGKL [P15R], LTKASLKPRGCSKPEWRPPGGKL [P15E] is higher in protein stability index: 2.34 for the first, 3.93 for the second.

Going from LTKASLKPRGCSKPDWRPPGGKL [P15D] to LTKASLKPRGCSKPMWRPPGGKL [P15M], the protein stability index falls from 3.75 to 1.78.

Going from LTKASLKPRGCSKPNWRPPGGKL [P15N] to LTKASLKPRGCSKPYWRPPGGKL [P15Y], the protein stability index rises from 1.77 to 2.73.

Compared with LTKASLKPRGCSKAPWRPPGGKL [P14A], LTKASLKPRGCSKLPWRPPGGKL [P14L] is higher in protein stability index: 1.54 for the first, 2.24 for the second.

First: LTKASLKPRGCSKWPWRPPGGKL [P14W]
Second: LTKASLKPRGCSKVPWRPPGGKL [P14V]
The protein stability index of the first is lower: 1.94 for the first, 2.36 for the second.

First: LTKASLKPRGCSKSPWRPPGGKL [P14S]
Second: LTKASLKPRGCSKPPWRPPFGKL [G20F]
The protein stability index of the first is lower: 1.38 for the first, 3.03 for the second.

Compared with LTKASLKPRGCSKPPWRPPKGKL [G20K], LTKASLKPRGCSKPPWRPPMGKL [G20M] is lower in protein stability index: 3.36 for the first, 2.13 for the second.

Compared with LTKASLKPRGCSKPPWRPPSGKL [G20S], LTKASLKPRGCSKPPWRPPHGKL [G20H] is higher in protein stability index: 2.76 for the first, 3.77 for the second.

Going from LTKASLKPRGCSKPPWRPPRGKL [G20R] to LTKASLKPRGCSKPPWRPPNGKL [G20N], the protein stability index rises from 2.18 to 2.27.

Compared with LTKASLKPRGCSKPPWRPPCGKL [G20C], LTKASLKPRGCSKPPWRPPDGKL [G20D] is higher in protein stability index: 2.91 for the first, 4.64 for the second.

Going from LTKASLKPRGCSKPPWRPPIGKL [G20I] to LTKASLTPRGCSKPPWRPPGGKL [K7T], the protein stability index falls from 2.42 to 2.25.

Going from LTKASLLPRGCSKPPWRPPGGKL [K7L] to LTKASLEPRGCSKPPWRPPGGKL [K7E], the protein stability index falls from 1.69 to 1.51.

Going from LTKASLHPRGCSKPPWRPPGGKL [K7H] to LTKASLVPRGCSKPPWRPPGGKL [K7V], the protein stability index falls from 2.31 to 2.25.

Compared with LTKASLIPRGCSKPPWRPPGGKL [K7I], LTKASLSPRGCSKPPWRPPGGKL [K7S] is lower in protein stability index: 1.56 for the first, 1.53 for the second.

First: LTKASLNPRGCSKPPWRPPGGKL [K7N]
Second: LTKASLGPRGCSKPPWRPPGGKL [K7G]
The protein stability index of the first is higher: 2.32 for the first, 1.51 for the second.

Going from LTKASLMPRGCSKPPWRPPGGKL [K7M] to LTKASLAPRGCSKPPWRPPGGKL [K7A], the protein stability index rises from 2.66 to 2.72.

Going from LTKASLCPRGCSKPPWRPPGGKL [K7C] to LTKASLFPRGCSKPPWRPPGGKL [K7F], the protein stability index rises from 1.68 to 1.78.

First: LTKASLKARGCSKPPWRPPGGKL [P8A]
Second: LTKASLKQRGCSKPPWRPPGGKL [P8Q]
The protein stability index of the first is lower: 3.56 for the first, 4.76 for the second.

Going from LTKASLKMRGCSKPPWRPPGGKL [P8M] to LTKASLKWRGCSKPPWRPPGGKL [P8W], the protein stability index rises from 2.53 to 4.77.

First: LTKASLKYRGCSKPPWRPPGGKL [P8Y]
Second: LTKASLKLRGCSKPPWRPPGGKL [P8L]
The protein stability index of the first is lower: 2.15 for the first, 2.77 for the second.

Compared with LTKASLKHRGCSKPPWRPPGGKL [P8H], LTKASLKFRGCSKPPWRPPGGKL [P8F] is higher in protein stability index: 1.65 for the first, 2.51 for the second.

First: LTKASLKPRGCSKPPWRNPGGKL [P18N]
Second: LTKASLKPRGCSKPPWRKPGGKL [P18K]
The protein stability index of the first is higher: 2.93 for the first, 2.85 for the second.

Compared with LTKASLKPRGCSKPPWRLPGGKL [P18L], LTKASLKPRGCSKPPWRWPGGKL [P18W] is higher in protein stability index: 1.32 for the first, 2.9 for the second.

First: LTKASLKPRGCSKPPWRHPGGKL [P18H]
Second: LTKASLKPRGCSKPPWRMPGGKL [P18M]
The protein stability index of the first is higher: 3.78 for the first, 3.68 for the second.

Going from LTKASLKPRGCSKPPWRRPGGKL [P18R] to LTKASLKPRGCSKPPWRYPGGKL [P18Y], the protein stability index rises from 2.46 to 2.86.

First: LTKASLKPRGCSKPPWRIPGGKL [P18I]
Second: LTKASLKPRGCSKPPWRQPGGKL [P18Q]
The protein stability index of the first is lower: 2.18 for the first, 2.26 for the second.

First: LTKATLKPRGCSKPPWRPPGGKL [S5T]
Second: LTKAGLKPRGCSKPPWRPPGGKL [S5G]
The protein stability index of the first is higher: 2.08 for the first, 1.24 for the second.

Compared with LTKAWLKPRGCSKPPWRPPGGKL [S5W], LTKAALKPRGCSKPPWRPPGGKL [S5A] is lower in protein stability index: 3.95 for the first, 2.57 for the second.

Going from LTKAQLKPRGCSKPPWRPPGGKL [S5Q] to LTKAFLKPRGCSKPPWRPPGGKL [S5F], the protein stability index falls from 3.27 to 2.03.

Compared with LTKAELKPRGCSKPPWRPPGGKL [S5E], LTKAKLKPRGCSKPPWRPPGGKL [S5K] is higher in protein stability index: 1.81 for the first, 2.43 for the second.

Compared with LTKAHLKPRGCSKPPWRPPGGKL [S5H], LTKADLKPRGCSKPPWRPPGGKL [S5D] is lower in protein stability index: 1.55 for the first, 1.19 for the second.

Going from LTKAMLKPRGCSKPPWRPPGGKL [S5M] to LTKALLKPRGCSKPPWRPPGGKL [S5L], the protein stability index rises from 1.83 to 2.21.

First: LTKANLKPRGCSKPPWRPPGGKL [S5N]
Second: LTKAILKPRGCSKPPWRPPGGKL [S5I]
The protein stability index of the first is lower: 1.99 for the first, 2.9 for the second.

Going from LTKAVLKPRGCSKPPWRPPGGKL [S5V] to LTKACLKPRGCSKPPWRPPGGKL [S5C], the protein stability index falls from 2.5 to 1.86.

First: LTKAPLKPRGCSKPPWRPPGGKL [S5P]
Second: LTKASLKPRGNSKPPWRPPGGKL [C11N]
The protein stability index of the first is higher: 2.21 for the first, 1.58 for the second.

First: LTKASLKPRGSSKPPWRPPGGKL [C11S]
Second: LTKASLKPRGWSKPPWRPPGGKL [C11W]
The protein stability index of the first is lower: 2 for the first, 2.1 for the second.

Compared with LTKASLKPRGQSKPPWRPPGGKL [C11Q], LTKASLKPRGMSKPPWRPPGGKL [C11M] is higher in protein stability index: 1.54 for the first, 1.71 for the second.

Going from LTKASLKPRGYSKPPWRPPGGKL [C11Y] to LTKASLKPRGGSKPPWRPPGGKL [C11G], the protein stability index rises from 1.27 to 2.13.

Going from LTKASLKPRGDSKPPWRPPGGKL [C11D] to LTKASLKPRGHSKPPWRPPGGKL [C11H], the protein stability index rises from 1.76 to 3.08.

First: LTKASLKPRGLSKPPWRPPGGKL [C11L]
Second: LTKASLKPRGVSKPPWRPPGGKL [C11V]
The protein stability index of the first is higher: 2.39 for the first, 2.1 for the second.

Compared with LTKASLKPRGISKPPWRPPGGKL [C11I], LTKASLKPRGPSKPPWRPPGGKL [C11P] is lower in protein stability index: 2.1 for the first, 1.65 for the second.

Going from LTKASLKPRGCWKPPWRPPGGKL [S12W] to LTKASLKPRGCRKPPWRPPGGKL [S12R], the protein stability index falls from 3.5 to 1.34.

First: LTKASLKPRGCIKPPWRPPGGKL [S12I]
Second: LTKASLKPRGCVKPPWRPPGGKL [S12V]
The protein stability index of the first is lower: 2.3 for the first, 2.52 for the second.

Going from LTKASLKPRGCMKPPWRPPGGKL [S12M] to LTKASLKPRGCPKPPWRPPGGKL [S12P], the protein stability index falls from 5.53 to 1.48.

In the case of LTKASLKPRGCEKPPWRPPGGKL [S12E], the protein stability index is reported as 2.02.

— the supplement of paper PMC10567573
